Results on six molecules are retold here after patent US20210275545A1 (YEDA RESEARCH AND DEVELOPMENT, published 2021).

The target in test [1] is T1, ERα-Gluc2 (estrogen receptor alpha fused to Gluc2) (UniProt P03372 1-595).
T1 construct: not shown: Gaussia luciferase (Gluc), carboxyl-terminal fragment Gluc2, amino acids 94-169
T1 sequence (looked up): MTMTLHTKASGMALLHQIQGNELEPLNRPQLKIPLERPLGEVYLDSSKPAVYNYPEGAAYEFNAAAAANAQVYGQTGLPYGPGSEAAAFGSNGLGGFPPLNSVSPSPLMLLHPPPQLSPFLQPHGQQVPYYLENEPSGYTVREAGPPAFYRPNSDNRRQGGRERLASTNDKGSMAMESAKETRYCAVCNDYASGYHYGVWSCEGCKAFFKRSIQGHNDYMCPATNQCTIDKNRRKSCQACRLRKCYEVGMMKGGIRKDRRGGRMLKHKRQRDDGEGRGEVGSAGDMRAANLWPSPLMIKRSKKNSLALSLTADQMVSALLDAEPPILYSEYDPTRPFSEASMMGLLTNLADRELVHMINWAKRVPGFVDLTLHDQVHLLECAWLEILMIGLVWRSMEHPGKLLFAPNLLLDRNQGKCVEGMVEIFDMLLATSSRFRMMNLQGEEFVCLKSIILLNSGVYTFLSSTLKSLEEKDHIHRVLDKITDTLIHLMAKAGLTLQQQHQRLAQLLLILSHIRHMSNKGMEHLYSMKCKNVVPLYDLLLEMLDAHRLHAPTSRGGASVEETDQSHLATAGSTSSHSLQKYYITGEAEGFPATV
Put plainly: PCA in HEK-293T cells, vehicle against estradiol 10 nM 60 min (FIG. 8C). As for the experimental part: (§1) (A) HEK-293T cells (6×10³) were seeded in 96-well plates. […] (B and C) HEK-293T cells (6×10³) were seeded in 96-well plates. […] Cells were then lysed and luminescence was determined.

For test [2], the target named is T2, MR-Gluc2 (mineralocorticoid receptor fused to Gluc2) (UniProt P08235 1-984).
T2 construct: not shown: Gaussia luciferase (Gluc), carboxyl-terminal fragment Gluc2, amino acids 94-169
T2 sequence (looked up): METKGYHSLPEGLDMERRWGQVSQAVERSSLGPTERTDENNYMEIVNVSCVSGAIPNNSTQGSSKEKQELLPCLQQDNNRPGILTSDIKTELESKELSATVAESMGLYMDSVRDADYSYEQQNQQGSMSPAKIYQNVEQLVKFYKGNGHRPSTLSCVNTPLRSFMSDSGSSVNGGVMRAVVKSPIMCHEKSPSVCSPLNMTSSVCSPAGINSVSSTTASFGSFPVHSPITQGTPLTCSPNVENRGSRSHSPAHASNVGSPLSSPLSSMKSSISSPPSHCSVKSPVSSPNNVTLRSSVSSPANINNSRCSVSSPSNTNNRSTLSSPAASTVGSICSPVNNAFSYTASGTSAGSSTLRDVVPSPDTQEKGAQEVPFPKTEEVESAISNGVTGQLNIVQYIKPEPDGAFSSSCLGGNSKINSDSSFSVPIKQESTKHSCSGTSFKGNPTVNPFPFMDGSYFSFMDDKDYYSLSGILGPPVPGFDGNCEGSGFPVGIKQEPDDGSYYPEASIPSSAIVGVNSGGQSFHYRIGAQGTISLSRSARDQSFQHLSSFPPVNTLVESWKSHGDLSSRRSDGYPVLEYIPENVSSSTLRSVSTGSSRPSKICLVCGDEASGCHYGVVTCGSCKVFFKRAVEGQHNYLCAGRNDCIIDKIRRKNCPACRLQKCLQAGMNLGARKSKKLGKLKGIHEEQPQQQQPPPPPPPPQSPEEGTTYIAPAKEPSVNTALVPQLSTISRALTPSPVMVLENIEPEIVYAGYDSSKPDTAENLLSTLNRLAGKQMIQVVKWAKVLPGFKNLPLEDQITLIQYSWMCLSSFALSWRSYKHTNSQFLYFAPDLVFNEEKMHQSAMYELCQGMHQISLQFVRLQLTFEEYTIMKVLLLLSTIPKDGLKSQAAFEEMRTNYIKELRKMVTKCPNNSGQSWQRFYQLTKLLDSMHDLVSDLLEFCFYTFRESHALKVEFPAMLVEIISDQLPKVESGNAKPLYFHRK
Put plainly: PCA in HEK-293T cells, DEX 1 µM 60 min (FIG. 8B). As for the experimental part: as §1

Test [3] deals with T1, ERα-Gluc2 (estrogen receptor alpha …). Put plainly: PCA in HEK-293T cells, estradiol 10 nM 60 min (FIG. 8C). As for the experimental part: as §1
Test [4] concerns the target T3, GR-Gluc2 (full-length glucocorticoid receptor fused at its carboxyl terminus to Gluc2) (human, UniProt P04150 1-777).
T3 construct: domain: full length;range 94-169; Expressed in HEK-293/HEK-293T cells by transfection; also called Gluc2-GR; not shown: Gaussia luciferase (Gluc), carboxyl-terminal fragment Gluc2, amino acids 94-169
T3 sequence (looked up): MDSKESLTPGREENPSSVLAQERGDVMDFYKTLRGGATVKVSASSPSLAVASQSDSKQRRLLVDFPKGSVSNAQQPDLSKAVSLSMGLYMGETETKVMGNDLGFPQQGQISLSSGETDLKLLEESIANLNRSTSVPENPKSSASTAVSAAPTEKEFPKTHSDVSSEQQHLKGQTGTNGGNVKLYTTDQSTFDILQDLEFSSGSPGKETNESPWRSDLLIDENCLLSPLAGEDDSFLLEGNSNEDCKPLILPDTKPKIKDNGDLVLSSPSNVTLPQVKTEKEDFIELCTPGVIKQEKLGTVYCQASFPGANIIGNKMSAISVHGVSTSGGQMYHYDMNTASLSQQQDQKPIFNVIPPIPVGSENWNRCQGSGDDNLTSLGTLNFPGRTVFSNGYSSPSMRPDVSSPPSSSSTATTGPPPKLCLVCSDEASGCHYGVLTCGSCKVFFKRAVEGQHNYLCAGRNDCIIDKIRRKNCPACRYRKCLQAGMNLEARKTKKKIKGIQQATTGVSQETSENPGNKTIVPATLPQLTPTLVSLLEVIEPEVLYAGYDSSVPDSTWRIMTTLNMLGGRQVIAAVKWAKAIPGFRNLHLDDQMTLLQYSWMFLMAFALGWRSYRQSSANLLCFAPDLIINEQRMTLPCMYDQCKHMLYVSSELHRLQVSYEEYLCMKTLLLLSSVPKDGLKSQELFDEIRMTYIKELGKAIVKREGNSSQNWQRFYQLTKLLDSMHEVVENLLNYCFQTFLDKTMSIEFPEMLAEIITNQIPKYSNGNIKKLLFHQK
Put plainly: PCA in HEK-293T cells, DEX 1 µM or estradiol 10 nM 60 min (FIG. 8D). As for the experimental part:
as §1

Test [5] deals with T3, GR-Gluc2 (full-length glucocorticoid …). Put plainly: PCA in HEK-293T cells, DEX 1 µM with or without RU486 1 µM (FIG. 1C). The text has this: EB, empty beads; C, solvent control. Images shown are representative of three biological replicates.
The resulting luminescence was normalized to the signal associated with cells treated with vehicle only.

The target is the same in test [6]. Put plainly: PCA time course after DEX 1 µM in HEK-293T cells (FIG. 2A). As for the experimental part:
(A) HEK-293T cells (6×10³) were seeded in 96-well plates. […] Luminescence of vehicle-treated cells was used for normalization. […] Images were processed using the Zeiss ZEN2011 software. […] Bars, 20 μm.

B1: Gluc1-ELF3 (other, UniProt P78545 1-371, looked up)
chain: MAATCEISNIFSNYFSAMYSSEDSTLASVPPAATFGADDLVLTLSNPQMSLEGTEKASWLGEQPQFWSKTQVLDWISYQVEKNKYDASAIDFSRCDMDGATLCNCALEELRLVFGPLGDQLHAQLRDLTSSSSDELSWIIELLEKDGMAFQEALDPGPFDQGSPFAQELLDDGQQASPYHPGSCGAGAPSPGSSDVSTAGTGASRSSHSSDSGGSDVDLDPTDGKLFPSDGFRDCKKGDPKHGKRKRGRPRKLSKEYWDCLEGKKSKHAPRGTHLWEFIRDILIHPELNEGLMKWENRHEGVFKFLRSEAVAQLWGQKKKNSNMTYEKLSRAMRYYYKREILERVDGRRLVYKFGKNSSGWKEEEVLQSRN
notes: not shown: Gaussia luciferase (Gluc), amino-terminal fragment Gluc1, amino acids 1-93
For the molecule B1, in test [1], the binding result is “binds”.

B2: Gluc1-ETV2 (other, UniProt O00321 1-342, looked up)
chain: MDLWNWDEASPQEVPPGNKLAGLEGAKLGFCFPDLALQGDTPTATAETCWKGTSSSLASFPQLDWGSALLHPEVPWGAEPDSQALPWSGDWTDMACTAWDSWSGASQTLGPAPLGPGPIPAAGSEGAAGQNCVPVAGEATSWSRAQAAGSNTSWDCSVGPDGDTYWGSGLGGEPRTDCTISWGGPAGPDCTTSWNPGLHAGGTTSLKRYQSSALTVCSEPSPQSDRASLARCPKTNHRGPIQLWQFLLELLHDGARSSCIRWTGNSREFQLCDPKEVARLWGERKRKPGMNYEKLSRGLRYYYRRDIVRKSGGRKYTYRFGGRVPSLAYPDCAGGGRGAETQ
notes: as for B1
For the molecule B2, the binding result in test [2] was “binds”; in test [3], “no binding”.

B3: ERα-Gluc1 (estrogen receptor alpha fused to Gluc1) (receptor, UniProt P03372 1-595, looked up)
chain: T1 sequence (looked up)
notes: as for B1
For B3, the binding result in test [4] was “binds”.

B4: Gluc1-ETV4 (other, UniProt P43268 1-484, looked up)
chain: MERRMKAGYLDQQVPYTFSSKSPGNGSLREALIGPLGKLMDPGSLPPLDSEDLFQDLSHFQETWLAEAQVPDSDEQFVPDFHSENLAFHSPTTRIKKEPQSPRTDPALSCSRKPPLPYHHGEQCLYSSAYDPPRQIAIKSPAPGALGQSPLQPFPRAEQRNFLRSSGTSQPHPGHGYLGEHSSVFQQPLDICHSFTSQGGGREPLPAPYQHQLSEPCPPYPQQSFKQEYHDPLYEQAGQPAVDQGGVNGHRYPGAGVVIKQEQTDFAYDSDVTGCASMYLHTEGFSGPSPGDGAMGYGYEKPLRPFPDDVCVVPEKFEGDIKQEGVGAFREGPPYQRRGALQLWQFLVALLDDPTNAHFIAWTGRGMEFKLIEPEEVARLWGIQKNRPAMNYDKLSRSLRYYYEKGIMQKVAGERYVYKFVCEPEALFSLAFPDNQRPALKAEFDRPVSEEDTVPLSHLDESPAYLPELAGPAQPFGPKGGYSY
notes: as for B1
Take B4: the binding result was “no binding” in test [3] and “binds” in test [5].

B5: Gluc1-FLI1 (full-length FLI1 fused downstream of Gluc1) (other, UniProt Q01543 1-452, looked up)
chain: MDGTIKEALSVVSDDQSLFDSAYGAAAHLPKADMTASGSPDYGQPHKINPLPPQQEWINQPVRVNVKREYDHMNGSRESPVDCSVSKCSKLVGGGESNPMNYNSYMDEKNGPPPPNMTTNERRVIVPADPTLWTQEHVRQWLEWAIKEYSLMEIDTSFFQNMDGKELCKMNKEDFLRATTLYNTEVLLSHLSYLRESSLLAYNTTSHTDQSSRLSVKEDPSYDSVRRGAWGNNMNSGLNKSPPLGGAQTISKNTEQRPQPDPYQILGPTSSRLANPGSGQIQLWQFLLELLSDSANASCITWEGTNGEFKMTDPDEVARRWGERKSKPNMNYDKLSRALRYYYDKNIMTKVHGKRYAYKFDFHGIAQALQPHPTESSMYKYPSDISYMPSYHAHQQKVNFVPPHPSSMPVTSSSFFGAASQYWTSPTGGIYPNPNVPRHPNTHVPSHLGSYY
notes: range 1-93;domain: full length; also called FiI1; not shown: Gaussia luciferase (Gluc), amino-terminal fragment Gluc1, amino acids 1-93
As to B5, the binding result in test [3] was “no binding”.

B6: Gluc1-ERG (other, UniProt P11308-3 1-486, looked up)
chain: MIQTVPDPAAHIKEALSVVSEDQSLFECAYGTPHLAKTEMTASSSSDYGQTSKMSPRVPQQDWLSQPPARVTIKMECNPSQVNGSRNSPDECSVAKGGKMVGSPDTVGMNYGSYMEEKHMPPPNMTTNERRVIVPADPTLWSTDHVRQWLEWAVKEYGLPDVNILLFQNIDGKELCKMTKDDFQRLTPSYNADILLSHLHYLRETPLPHLTSDDVDKALQNSPRLMHARNTGGAAFIFPNTSVYPEATQRITTRPDLPYEPPRRSAWTGHGHPTPQSKAAQPSPSTVPKTEDQRPQLDPYQILGPTSSRLANPGSGQIQLWQFLLELLSDSSNSSCITWEGTNGEFKMTDPDEVARRWGERKSKPNMNYDKLSRALRYYYDKNIMTKVHGKRYAYKFDFHGIAQALQPHPPESSLYKYPSDLPYMGSYHAHPQKMNFVAPHPPALPVTSSSFFAAPNPYWNSPTGGIYPNTRLPTSHMPSHLGTYY
notes: as for B1
Take B6: the binding result in test [2] was “binds”; in test [3] it was “no binding”; in test [6], “binds”.
